Source: patent publication US20230391845A1, “GLP-1, GIP AND GLUCAGON RECEPTOR TRIPLE AGONISTS” (priority 2020, published 2023)
Where no end group is shown, it is not given here. [ ]: non-standard residue; d: D form. Aib = CC(C)(N)C(=O)O

T1: human glucose-dependent insulinotropic polypeptide receptor (human, UniProt P48546 22-466)
T1 sequence (looked up): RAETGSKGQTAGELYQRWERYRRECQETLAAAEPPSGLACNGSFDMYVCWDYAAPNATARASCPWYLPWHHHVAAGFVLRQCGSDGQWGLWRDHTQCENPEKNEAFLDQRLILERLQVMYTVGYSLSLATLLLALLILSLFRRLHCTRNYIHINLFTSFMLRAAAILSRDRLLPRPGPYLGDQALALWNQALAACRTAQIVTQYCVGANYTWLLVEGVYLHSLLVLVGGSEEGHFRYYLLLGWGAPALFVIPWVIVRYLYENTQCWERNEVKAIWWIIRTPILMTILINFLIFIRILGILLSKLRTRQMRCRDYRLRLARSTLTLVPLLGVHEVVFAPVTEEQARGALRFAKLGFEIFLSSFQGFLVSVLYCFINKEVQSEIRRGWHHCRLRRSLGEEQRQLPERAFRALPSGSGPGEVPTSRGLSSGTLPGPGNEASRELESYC

B1: Compound No. 19 (peptide)
peptide: H[Aib]QGTFTSDYSIYLEKQAA[Aib]EFVQWLLEGGPSSGAPPPS-NH2
modifications: not fully specified (residue 16); printed as H-Aib-QGTFTSDYSIYLE-K[(2S)-2-amino-6-[[(2S)-2-amino-6-[[(4S)-4-carboxy-4-(19-carboxynonadecanoylamino)butanoyl]amino]hexanoyl]amino]hexanoyl]-QAA-Aib-EFVQWLLEGGPSSGAPPPS-NH2
B2: Compound No. 32 (peptide)
peptide: H[Aib]HGTFTSDYSYYLEKQAA[Aib]EFVQWLLEGGPSSGAPPPS-NH2
modifications: not fully specified (residue 16); printed as H-Aib-HGTFTSDYSYYLE-K[(2S)-2-amino-6-[[(2S)-2-amino-6-[[(4S)-4-carboxy-4-(17-carboxyheptadecanoylamino)butanoyl]amino]hexanoyl]amino]hexanoyl]-QAA-Aib-EFVQWLLEGGPSSGAPPPS-NH2
B3: Compound No. 20 (peptide)
peptide: Y[Aib]QGTFTSDYSIYLEKQAAQEFVQWLLEGGPSSGAPPPS-NH2
modifications: not fully specified (residue 16); printed as Y-Aib-QGTFTSDYSIYLE-K[2-[2-[2-[[2-[2-[2-[[(4S)-4-carboxy-4-[[4-[(19-carboxynonadecanoylamino)methyl]cyclohexanecarbonyl]amino]butanoyl]amino]ethoxy]ethoxy]acetyl]amino]ethoxy]ethoxy]acetyl]-QAAQEFVQWLLEGGPSSGAPPPS-NH2
B4: Compound No. 22 (peptide)
peptide: H[Aib]HGTFTSDYSIYLEKQAA[Aib]EFVQWLLEGGPSSGAPPPS-NH2
modifications: not fully specified (residue 16); printed as H-Aib-HGTFTSDYSIYLE-K[(2S)-2-amino-6-[[(2S)-2-amino-6-[[(4S)-4-carboxy-4-(19-carboxynonadecanoylamino)butanoyl]amino]hexanoyl]amino]hexanoyl]-QAA-Aib-EFVQWLLEGGPSSGAPPPS-NH2
B5: Compound No. 24 (peptide)
peptide: H[Aib]HGTFTSDYSIYLEKQYA[Aib]EFVQWLLEGGPSSGAPPPS-NH2
modifications: not fully specified (residue 16); printed as H-Aib-HGTFTSDYSIYLE-K[(2S)-2-amino-6-[[(2S)-2-amino-6-[[(4S)-4-carboxy-4-(19-carboxynonadecanoylamino)butanoyl]amino]hexanoyl]amino]hexanoyl]-QYA-Aib-EFVQWLLEGGPSSGAPPPS-NH2
B6: Compound No. 23 (peptide)
peptide: H[Aib]HGTFTSDYSIYLEKQAAQEFVQWLLEGGPSSGAPPPS-NH2
modifications: not fully specified (residue 16); printed as H-Aib-HGTFTSDYSIYLE-K[(2S)-2-amino-6-[[(2S)-2-amino-6-[[(4S)-4-carboxy-4-[[4-[(19-carboxynonadecanoylamino)methyl]cyclohexanecarbonyl]amino]butanoyl]amino]hexanoyl]amino]hexanoyl]-QAAQEFVQWLLEGGPSSGAPPPS-NH2
B7: Compound No. 29 (peptide)
peptide: H[Aib]HGTFTSDYSYYLEKQYA[Aib]EFVQWLLEGGPSSGAPPPS-NH2
modifications: not fully specified (residue 16); printed as H-Aib-HGTFTSDYSYYLE-K[(2S)-2-amino-6-[[(2S)-2-amino-6-[[(4S)-4-carboxy-4-(19-carboxynonadecanoylamino)butanoyl]amino]hexanoyl]amino]hexanoyl]-QYA-Aib-EFVQWLLEGGPSSGAPPPS-NH2
B8: Compound No. 35 (peptide)
peptide: H[Aib]HGTFTSDYSIYLEKQKA[Aib]EFVQWLLEGGPSSGAPPPS-NH2
modifications: not fully specified (residue 16); printed as H-Aib-HGTFTSDYSIYLE-K[(2S)-2-amino-6-[[(2S)-2-amino-6-[[(4S)-4-carboxy-4-(19-carboxynonadecanoylamino)butanoyl]amino]hexanoyl]amino]hexanoyl]-QKA-Aib-EFVQWLLEGGPSSGAPPPS-NH2
B9: Compound No. 31 (peptide)
peptide: H[Aib]HGTFTSDYSYYLEKKAA[Aib]EFVQWLLEGGPSSGAPPPS-NH2
modifications: not fully specified (residue 16); printed as H-Aib-HGTFTSDYSYYLE-K[(2S)-2-amino-6-[[(2S)-2-amino-6-[[(4S)-4-carboxy-4-(19-carboxynonadecanoylamino)butanoyl]amino]hexanoyl]amino]hexanoyl]-KAA-Aib-EFVQWLLEGGPSSGAPPPS-NH2
B10: Compound No. 25 (peptide)
peptide: H[Aib]HGTFTSDYSYYLEKQAA[Aib]EFVQWLLEGGPSSGAPPPS-NH2
modifications: not fully specified (residue 16); printed as H-Aib-HGTFTSDYSYYLE-K[(2S)-2-amino-6-[[(2S)-2-amino-6-[[(4S)-4-carboxy-4-[[4-[(19-carboxynonadecanoylamino)methyl]cyclohexanecarbonyl]amino]butanoyl]amino]hexanoyl]amino]hexanoyl]-QAA-Aib-EFVQWLLEGGPSSGAPPPS-NH2
B11: Compound No. 28 (peptide)
peptide: H[Aib]HGTFTSDYSIYLDKQAA[Aib]EFVQWLLEGGPSSGAPPPS-NH2
modifications: not fully specified (residue 16); printed as H-Aib-HGTFTSDYSIYLD-K[(2S)-2-amino-6-[[(2S)-2-amino-6-[[(4S)-4-carboxy-4-(19-carboxynonadecanoylamino)butanoyl]amino]hexanoyl]amino]hexanoyl]-QAA-Aib-EFVQWLLEGGPSSGAPPPS-NH2
B12: Compound No. 36 (peptide)
peptide: H[Aib]HGTFTSDYSKYLEKQAA[Aib]EFVQWLLEGGPSSGAPPPS-NH2
modifications: not fully specified (residue 16); printed as H-Aib-HGTFTSDYSKYLE-K[(2S)-2-amino-6-[[(2S)-2-amino-6-[[(4S)-4-carboxy-4-(19-carboxynonadecanoylamino)butanoyl]amino]hexanoyl]amino]hexanoyl]-QAA-Aib-EFVQWLLEGGPSSGAPPPS-NH2
B13: Compound No. 34 (peptide)
peptide: H[Aib]HGTFTSDYSIYLEKKAA[Aib]EFVQWLLEGGPSSGAPPPS-NH2
modifications: not fully specified (residue 16); printed as H-Aib-HGTFTSDYSIYLE-K[2-[2-[2-[[2-[2-[2-[[(4S)-4-carboxy-4-(19-carboxynonadecanoylamino)butanoyl]amino]ethoxy]ethoxy]acetyl]amino]ethoxy]ethoxy]acetyl]-KAA-Aib-EFVQWLLEGGPSSGAPPPS-NH2
B14: Compound No. 27 (peptide)
peptide: H[Aib]HGTFTSDYSIYLEKQAAEEFVQWLLEGGPSSGAPPPS-NH2
modifications: not fully specified (residue 16); printed as H-Aib-HGTFTSDYSIYLE-K[(2S)-2-amino-6-[[(2S)-2-amino-6-[[(4S)-4-carboxy-4-(19-carboxynonadecanoylamino)butanoyl]amino]hexanoyl]amino]hexanoyl]-QAAEEFVQWLLEGGPSSGAPPPS-NH2
B15: Compound No. 26 (peptide)
peptide: H[Aib]HGTFTSDYSYYLEKQAA[Aib]EFVQWLLEGGPSSGAPPPS-NH2
modifications: not fully specified (residue 16); printed as H-Aib-HGTFTSDYSYYLE-K[(2S)-2-amino-6-[[(2S)-2-amino-6-[[(4S)-4-carboxy-4-(19-carboxynonadecanoylamino)butanoyl]amino]hexanoyl]amino]hexanoyl]-QAA-Aib-EFVQWLLEGGPSSGAPPPS-NH2

target: human glucagon-like peptide 1 receptor (human, UniProt P43220 24-463); test: cell-based or functional assay

| Binder | hGLP-1R CRE Luc EC50 (pM) |
| --- | --- |
| B1 | 1.7 pM |
| B2 | 1.6 pM |
| B3 | 5.1 pM |
| B4 | 2 pM |
| B5 | 6.8 pM |
| B6 | 2 pM |
| B7 | 5.8 pM |
| B8 | 5.2 pM |
| B9 | 3 pM |
| B10 | 4.6 pM |
| B11 | 4.5 pM |
| B12 | 1.8 pM |
| B13 | 2.6 pM |
| B14 | 0.8 pM |
| B15 | 3.1 pM |

target: T1, human glucose-dependent insulinotropic …; test: cell-based or functional assay

| Binder | hGIPR CRE Luc EC50 (pM) |
| --- | --- |
| B1 | 55 pM |
| B2 | 3.5 pM |
| B3 | 8.1 pM |
| B4 | 7.1 pM |
| B5 | 7.7 pM |
| B6 | 5.1 pM |
| B7 | 7.2 pM |
| B8 | 13.9 pM |
| B9 | 9 pM |
| B10 | 6.9 pM |
| B11 | 7.7 pM |
| B12 | 9.3 pM |
| B13 | 8.7 pM |
| B14 | 2.5 pM |
| B15 | 6.5 pM |

target: human glucagon receptor (human, UniProt P47871 26-477); test: cell-based or functional assay
Sequence (P47871 26-477): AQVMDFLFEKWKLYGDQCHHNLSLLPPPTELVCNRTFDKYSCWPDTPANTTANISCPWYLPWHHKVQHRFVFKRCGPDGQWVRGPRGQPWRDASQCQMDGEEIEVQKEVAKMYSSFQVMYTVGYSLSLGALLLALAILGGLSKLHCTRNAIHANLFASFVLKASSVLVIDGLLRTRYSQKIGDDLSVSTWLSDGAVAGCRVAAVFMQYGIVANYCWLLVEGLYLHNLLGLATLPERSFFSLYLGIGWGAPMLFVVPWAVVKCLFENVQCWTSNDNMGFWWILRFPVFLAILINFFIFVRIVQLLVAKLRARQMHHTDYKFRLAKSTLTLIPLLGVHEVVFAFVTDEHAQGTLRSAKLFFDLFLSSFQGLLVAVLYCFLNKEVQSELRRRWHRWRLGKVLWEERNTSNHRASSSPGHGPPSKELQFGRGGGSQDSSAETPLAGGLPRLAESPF

| Binder | hGcgR CRE Luc EC50 (pM) |
| --- | --- |
| B1 | 357 pM |
| B2 | 10.3 pM |
| B3 | 147 pM |
| B4 | 48.7 pM |
| B5 | 13.1 pM |
| B6 | 18.3 pM |
| B7 | 9.6 pM |
| B8 | 5 pM |
| B9 | 7.7 pM |
| B10 | 25.2 pM |
| B11 | 16.7 pM |
| B12 | 11.4 pM |
| B13 | 24.7 pM |
| B14 | 55 pM |
| B15 | 13.6 pM |
